Like-named read-outs stand apart in the source and are kept apart here.
Assays:
Test in all cases: fluorescence anisotropy
PsaR wild-type [1] = target: T1, PsaR wild-type (Streptococcus pneumoniae D39, UniProt A0A0H2ZQ59 1-216)
PsaR wild-type [2] = target: T1, PsaR wild-type; remark: listed apart in the source
PsaR E99A = PsaR E99A (Streptococcus pneumoniae D39, UniProt A0A0H2ZQ59 1-216, E99A)
PsaR D7A = PsaR D7A (Streptococcus pneumoniae D39, UniProt A0A0H2ZQ59 1-216, D7A)
PsaR wild-type [3] = target: T1, PsaR wild-type; remark: listed apart in the source
PsaR H76F = PsaR H76F (Streptococcus pneumoniae D39, UniProt A0A0H2ZQ59 1-216, H76F)
PsaR D160A = PsaR D160A (Streptococcus pneumoniae D39, UniProt A0A0H2ZQ59 1-216, D160A)
PsaR H125A = PsaR H125A (Streptococcus pneumoniae D39, UniProt A0A0H2ZQ59 1-216, H125A)
PsaR H76A = PsaR H76A (Streptococcus pneumoniae D39, UniProt A0A0H2ZQ59 1-216, H76A)

B1: PsaO (psaBCA operator) (dsDNA)
DNA 1: TTCAAAAATTAACTTGACTTAATTTTTTTT
DNA 2: AAAAAAAATTAAGTCAAGTTAATTTTTGAA
- Ka (PsaR wild-type [1]): 10.1 ± 0.1 log10 M-1
- Ka (PsaR wild-type [2]): 8.02 ± 0.03 log10 M-1
- Ka (PsaR E99A): 9.27 ± 0.05 log10 M-1
- Ka (PsaR D7A): 7.22 ± 0.03 log10 M-1
- Ka (PsaR wild-type [3]): 10.6 ± 0.1 log10 M-1
- Ka (PsaR H76F): 8.54 ± 0.06 log10 M-1
- Ka (PsaR D160A): 9.8 ± 0.1 log10 M-1
- Ka (PsaR H125A): 10.4 ± 0.1 log10 M-1
- Ka (PsaR H76A): 9.6 ± 0.1 log10 M-1

Source: publication PMC3859839
